We go through three molecules from article PMC10261046, “Mechanism of small molecule inhibition of Plasmodium falciparum myosin A informs antimalarial drug design” (Nature Communications, 2023).

The target of test [1] is T1, Full-length PfMyoA heavy chain WT (Plasmodium falciparum, UniProt Q8IDR3 1-818).
T1 sequence (heavy): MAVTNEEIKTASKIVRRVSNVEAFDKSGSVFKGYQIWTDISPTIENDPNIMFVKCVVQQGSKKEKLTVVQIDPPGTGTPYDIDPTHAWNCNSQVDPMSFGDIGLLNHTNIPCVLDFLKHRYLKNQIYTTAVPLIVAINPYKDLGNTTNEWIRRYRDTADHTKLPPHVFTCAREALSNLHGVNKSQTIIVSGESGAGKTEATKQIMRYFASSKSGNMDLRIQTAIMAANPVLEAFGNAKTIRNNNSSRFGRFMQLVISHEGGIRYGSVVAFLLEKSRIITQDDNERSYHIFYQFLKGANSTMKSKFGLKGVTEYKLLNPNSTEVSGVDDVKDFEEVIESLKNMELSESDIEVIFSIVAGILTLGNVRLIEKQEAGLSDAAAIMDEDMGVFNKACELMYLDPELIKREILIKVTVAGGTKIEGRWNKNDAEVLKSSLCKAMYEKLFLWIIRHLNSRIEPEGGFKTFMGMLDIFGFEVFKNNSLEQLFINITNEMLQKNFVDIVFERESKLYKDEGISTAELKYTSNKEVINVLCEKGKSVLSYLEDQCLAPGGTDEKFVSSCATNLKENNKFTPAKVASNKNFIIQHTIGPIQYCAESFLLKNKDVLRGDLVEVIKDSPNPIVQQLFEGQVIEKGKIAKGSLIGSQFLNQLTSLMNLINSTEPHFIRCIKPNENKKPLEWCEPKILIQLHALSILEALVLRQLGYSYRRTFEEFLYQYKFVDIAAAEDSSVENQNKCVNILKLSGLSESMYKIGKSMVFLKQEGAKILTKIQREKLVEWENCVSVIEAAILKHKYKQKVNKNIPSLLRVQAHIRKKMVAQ
As to the kind of experiment: crystal structure; PfMyoA/ELC/MTIP-ΔN co-crystallized with or without KNX-002 and with or without ATPγS; hanging drop, 4 °C, 2.0 M ammonium sulfate, 0.1 M sodium HEPES pH 7.5, 4% PEG400. The note with it: both partners purified.

Test [2] deals with Skeletal muscle actin (chicken), filaments (chicken, UniProt P68139 1-377). As to the kind of experiment: count of fluorescent actin filaments on surface-immobilized myosin (modified in vitro motility assay); PfMyoA surface-immobilized; same buffer, 0% methylcellulose, 30 °C; no nucleotide (NF); with or without KNX-002. The note with it: both partners purified.

B1: MTIP-ΔN (PfMTIP lacking residues 1-E60) (domain or fragment)
light: SVADIQQLEEKVDESDVRIYFNEKSSGGKISIDNASYNARKLGLAPSSIDEKKIKELYGDNLTYEQYLEYLSICVHDKDNVEELIKMFAHFDNNCTGYLTKSQMKNILTTWGDALTDQEAIDALNAFSSEDNIDYKLFCEDILQ
notes: also called ΔN-MTIP
B1: the binding result in test [1] is given as “binds”.

B2: PfMyoA (full length Plasmodium falciparum myosin A heavy chain WT with bound light chains PfELC and PfMTIP) (complex)
chain 1: T1 sequence (heavy)
chain 2: MASDMEEKFREAFILFSSCSDHIEMYKFFELMNSFGIILTNDEKAALPNDINMDYWLNFAKKHYNYEQPFKHINNVNEQNTNVQIKIDNFLGIMKALDTRLTESDLNILLQITNPENKSTLNLKTVSQKLTESI
chain 3: MKQECNVCYFNLPDPESTLGPYDNELNYFTWGPGFEYEPEPQRKPLSIEESFENSEESEESVADIQQLEEKVDESDVRIYFNEKSSGGKISIDNASYNARKLGLAPSSIDEKKIKELYGDNLTYEQYLEYLSICVHDKDNVEELIKMFAHFDNNCTGYLTKSQMKNILTTWGDALTDQEAIDALNAFSSEDNIDYKLFCEDILQ
notes: also called class XIV myosin A; M.ADP; copies: + +
For the molecule B2, the binding result in test [2] is “binds”.

B3: PfELC (natural protein)
light: B2 chain 2
notes: also called essential light chain
As for B3, the binding result in test [1] is reported as “binds”.
